B1: DLC1 (parent)
chain: AEVVKIRDSFSNQNTETKDTKSR

Variants of: B1
Assay: protein stability index of a GFP-peptide fusion (GPS, HEK-293T) (PSI 1-6); higher = more stable
Conditions: c terminus: native
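Further: lentivirally expressed fusions sorted by FACS into six bins by GFP to DsRed ratio, PSI derived from sequencing read proportions per bin multiplied by bin number.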

Point of comparison: AEVKKIRDSFSNQNTETKDTKSR [V4K], protein stability index 2.3. Against it:
- AEVVKQRDSFSNQNTETKDTKSR [I6Q] — higher, 2.67
- AEVVKPRDSFSNQNTETKDTKSR [I6P] — higher, 3.4
- AEVVKCRDSFSNQNTETKDTKSR [I6C] — higher, 2.43
- AEVVKERDSFSNQNTETKDTKSR [I6E] — higher, 3.33
- AEVVKYRDSFSNQNTETKDTKSR [I6Y] — higher, 2.65
- AEVVKVRDSFSNQNTETKDTKSR [I6V] — higher, 2.74
- AEVVKDRDSFSNQNTETKDTKSR [I6D] — higher, 2.79
- AEVVKLRDSFSNQNTETKDTKSR [I6L] — higher, 2.74
- AEVVKSRDSFSNQNTETKDTKSR [I6S] — higher, 2.74
- AEVVKMRDSFSNQNTETKDTKSR [I6M] — higher, 2.64
- AEVVKFRDSFSNQNTETKDTKSR [I6F] — higher, 2.41
- AEVVKGRDSFSNQNTETKDTKSR [I6G] — higher, 2.38
- AEVVKARDSFSNQNTETKDTKSR [I6A] — higher, 2.47
- AEVVKTRDSFSNQNTETKDTKSR [I6T] — higher, 3.6
- AEVVKRRDSFSNQNTETKDTKSR [I6R] — higher, 3.18
- AEVVKKRDSFSNQNTETKDTKSR [I6K] — higher, 3.3
- AEVVKHRDSFSNQNTETKDTKSR [I6H] — higher, 2.42
- AEVVKIFDSFSNQNTETKDTKSR [R7F] — higher, 3.38
- AEVVKIDDSFSNQNTETKDTKSR [R7D] — higher, 3.65
- AEVVKIEDSFSNQNTETKDTKSR [R7E] — higher, 2.99
- AEVVKIADSFSNQNTETKDTKSR [R7A] — higher, 3.56
- AEVVKICDSFSNQNTETKDTKSR [R7C] — higher, 2.5
- AQVVKIRDSFSNQNTETKDTKSR [E2Q] — lower, 1.79
- AHVVKIRDSFSNQNTETKDTKSR [E2H] — lower, 2.02
- AKVVKIRDSFSNQNTETKDTKSR [E2K] — lower, 1.81
- AFVVKIRDSFSNQNTETKDTKSR [E2F] — lower, 2.11
- AVVVKIRDSFSNQNTETKDTKSR [E2V] — lower, 1.7
- ALVVKIRDSFSNQNTETKDTKSR [E2L] — lower, 1.03
- AAVVKIRDSFSNQNTETKDTKSR [E2A] — lower, 1.88
- AGVVKIRDSFSNQNTETKDTKSR [E2G] — lower, 1.95
- AMVVKIRDSFSNQNTETKDTKSR [E2M] — lower, 1.63
- AYVVKIRDSFSNQNTETKDTKSR [E2Y] — lower, 1.52
- ACVVKIRDSFSNQNTETKDTKSR [E2C] — higher, 2.43
- ATVVKIRDSFSNQNTETKDTKSR [E2T] — higher, 3.03
- ADVVKIRDSFSNQNTETKDTKSR [E2D] — higher, 2.99
- ARVVKIRDSFSNQNTETKDTKSR [E2R] — lower, 1.88
- ANVVKIRDSFSNQNTETKDTKSR [E2N] — lower, 2.04
- ASVVKIRDSFSNQNTETKDTKSR [E2S] — higher, 2.75
- REVVKIRDSFSNQNTETKDTKSR [A1R] — higher, 2.73
- CEVVKIRDSFSNQNTETKDTKSR [A1C] — lower, 2.19
- SEVVKIRDSFSNQNTETKDTKSR [A1S] — lower, 1.75
- QEVVKIRDSFSNQNTETKDTKSR [A1Q] — higher, 3.03
- GEVVKIRDSFSNQNTETKDTKSR [A1G] — higher, 2.9
- KEVVKIRDSFSNQNTETKDTKSR [A1K] — higher, 3.16
- MEVVKIRDSFSNQNTETKDTKSR [A1M] — higher, 2.37
- NEVVKIRDSFSNQNTETKDTKSR [A1N] — higher, 3.03
- YEVVKIRDSFSNQNTETKDTKSR [A1Y] — lower, 1.79
- HEVVKIRDSFSNQNTETKDTKSR [A1H] — higher, 2.51
- DEVVKIRDSFSNQNTETKDTKSR [A1D] — higher, 3.12
- LEVVKIRDSFSNQNTETKDTKSR [A1L] — lower, 2.08
- WEVVKIRDSFSNQNTETKDTKSR [A1W] — higher, 2.76
- PEVVKIRDSFSNQNTETKDTKSR [A1P] — lower, 1.72
- TEVVKIRDSFSNQNTETKDTKSR [A1T] — lower, 2.08
- VEVVKIRDSFSNQNTETKDTKSR [A1V] — lower, 1.92
- FEVVKIRDSFSNQNTETKDTKSR [A1F] — lower, 2.06
- IEVVKIRDSFSNQNTETKDTKSR [A1I] — lower, 2.06
- AEVVVIRDSFSNQNTETKDTKSR [K5V] — lower, 1.94
- AEVVDIRDSFSNQNTETKDTKSR [K5D] — higher, 3.23
- AEVVAIRDSFSNQNTETKDTKSR [K5A] — lower, 2
- AEVVYIRDSFSNQNTETKDTKSR [K5Y] — lower, 2.13
- AEVVIIRDSFSNQNTETKDTKSR [K5I] — lower, 2.02
- AEVVNIRDSFSNQNTETKDTKSR [K5N] — higher, 2.93
- AEVVRIRDSFSNQNTETKDTKSR [K5R] — higher, 2.33
- AEVVMIRDSFSNQNTETKDTKSR [K5M] — lower, 2.09
- AEVVHIRDSFSNQNTETKDTKSR [K5H] — higher, 2.58
- AEVVSIRDSFSNQNTETKDTKSR [K5S] — higher, 2.77
- AEVVTIRDSFSNQNTETKDTKSR [K5T] — higher, 2.88
- AEVVCIRDSFSNQNTETKDTKSR [K5C] — higher, 2.88
- AEVVLIRDSFSNQNTETKDTKSR [K5L] — higher, 2.4
- AEVVEIRDSFSNQNTETKDTKSR [K5E] — higher, 3.01
- AEVVQIRDSFSNQNTETKDTKSR [K5Q] — higher, 2.43
- AEVVPIRDSFSNQNTETKDTKSR [K5P] — higher, 2.67
- AEVVGIRDSFSNQNTETKDTKSR [K5G] — higher, 3.3
- AEVVWIRDSFSNQNTETKDTKSR [K5W] — lower, 1.84
- AEVNKIRDSFSNQNTETKDTKSR [V4N] — higher, 2.48
- AEVQKIRDSFSNQNTETKDTKSR [V4Q] — higher, 2.81
- AEVYKIRDSFSNQNTETKDTKSR [V4Y] — higher, 2.76
- AEVAKIRDSFSNQNTETKDTKSR [V4A] — lower, 1.73
- AEVWKIRDSFSNQNTETKDTKSR [V4W] — lower, 2.05
- AEVTKIRDSFSNQNTETKDTKSR [V4T] — lower, 2.18
- AEVPKIRDSFSNQNTETKDTKSR [V4P] — higher, 3.04
- AEVSKIRDSFSNQNTETKDTKSR [V4S] — lower, 2.12
- AEVFKIRDSFSNQNTETKDTKSR [V4F] — higher, 2.89
- AEVDKIRDSFSNQNTETKDTKSR [V4D] — higher, 3.04
- AEVGKIRDSFSNQNTETKDTKSR [V4G] — lower, 2.01
- AEVRKIRDSFSNQNTETKDTKSR [V4R] — the same, 2.3
- AEVCKIRDSFSNQNTETKDTKSR [V4C] — the same, 2.3
- AEVMKIRDSFSNQNTETKDTKSR [V4M] — lower, 2.05
- AEVLKIRDSFSNQNTETKDTKSR [V4L] — higher, 4.87
- AEVHKIRDSFSNQNTETKDTKSR [V4H] — lower, 2.14
- AEVEKIRDSFSNQNTETKDTKSR [V4E] — higher, 2.59
- AEVIKIRDSFSNQNTETKDTKSR [V4I] — lower, 1.98
- AESVKIRDSFSNQNTETKDTKSR [V3S] — lower, 1.95
- AEWVKIRDSFSNQNTETKDTKSR [V3W] — higher, 2.53

From the supplement of paper PMC10567573
